B1: Tag7 protein (PGLYRP1) (natural protein)
chain: QETEDPACCSPIVPRNEWKALASECAQHLSLPLRYVVVSHTAGSSCNTPASCQQQARNVQHYHMKTLGWCDVGYNFLIGEDGLVYEGRGWNFTGAHSGHLWNPMSIGISFMGNYMDRVPTPQAIRAAQGLLACGVAQGALRSNYVLKGHRDVQRTLSPGNQLYHLIQNWPHYRSP
B2: peptide 17.1A (peptide)
peptide: HRDVQRT
B3: peptide 17.1B (peptide)
peptide: RSNYVLKG

The target of this assay is Hsp70 (recombinant) (UniProt P0DMV8). As to the kind of experiment: MST; sTNFR1 or Hsp70 labeled with Alexa Fluor 633 or 488 (200 nM), 20 min in the dark at room temperature with 16 concentrations of each compound; Monolith NT 115, IR laser power 10%; apparent Kd; triplicate.
In the case of B1, the Kd was 1.73 nM.
In the case of B2, the Kd came to 222 nM.
On to B3, for which the Kd came to 3.15 nM.
